Test [1] addresses T1, murine VEGFR2 (murine, UniProt P35918 20-762, limits assumed).
T1 construct: Antigen in the ELISA and Biacore assays; also called mVEGFR2; mouse VEGFR2
In words: Biacore. (In general: SPR reads the build-up and loss of mass on a sensor chip optically.)

Another test deals with T2, rat VEGFR2 (rat, UniProt O08775 20-760, limits assumed).
T2 construct: Antigen in the Biacore assay
Briefly: Biacore.

Test [2] concerns the target T3, human VEGFR2 (human, UniProt P35968 20-764, limits assumed).
T3 construct: Antigen in the ELISA and Biacore assays; also called hVEGFR2; KDR
Briefly: Biacore.

The target of test [3] is T4, human VEGFR2 expressed on HUVEC and on KDR-PAE cells (human, UniProt P35968 20-1356).
T4 construct: whole, on cells; also called hVEGFR2; hVEGR2
Briefly: cell binding (MFI), KDR-PAE cells.

Test [4] deals with T3, human VEGFR2. Briefly: ELISA, binding to hVEGFR2 (left panel). Background: In an ELISA, binding on a coated surface is turned into a signal by an enzyme label.
Test [5] deals with T1, murine VEGFR2. Briefly: ELISA, binding to mVEGFR2 (right panel).
In test [6] the target is T3, human VEGFR2. In words: blocking ELISA, hVEGF binding to hVEGFR2 (left panel) [continued) B].
The target in test [7] is T1, murine VEGFR2. Briefly: blocking ELISA, mVEGF binding to mVEGFR2 (right panel) [continued) B].
Test [8] addresses T1, murine VEGFR2. Briefly: ELISA, binding to mVEGFR2 (right panel); detected with a different secondary antibody.

T3 sequence (P35968 20-764 limits assumed): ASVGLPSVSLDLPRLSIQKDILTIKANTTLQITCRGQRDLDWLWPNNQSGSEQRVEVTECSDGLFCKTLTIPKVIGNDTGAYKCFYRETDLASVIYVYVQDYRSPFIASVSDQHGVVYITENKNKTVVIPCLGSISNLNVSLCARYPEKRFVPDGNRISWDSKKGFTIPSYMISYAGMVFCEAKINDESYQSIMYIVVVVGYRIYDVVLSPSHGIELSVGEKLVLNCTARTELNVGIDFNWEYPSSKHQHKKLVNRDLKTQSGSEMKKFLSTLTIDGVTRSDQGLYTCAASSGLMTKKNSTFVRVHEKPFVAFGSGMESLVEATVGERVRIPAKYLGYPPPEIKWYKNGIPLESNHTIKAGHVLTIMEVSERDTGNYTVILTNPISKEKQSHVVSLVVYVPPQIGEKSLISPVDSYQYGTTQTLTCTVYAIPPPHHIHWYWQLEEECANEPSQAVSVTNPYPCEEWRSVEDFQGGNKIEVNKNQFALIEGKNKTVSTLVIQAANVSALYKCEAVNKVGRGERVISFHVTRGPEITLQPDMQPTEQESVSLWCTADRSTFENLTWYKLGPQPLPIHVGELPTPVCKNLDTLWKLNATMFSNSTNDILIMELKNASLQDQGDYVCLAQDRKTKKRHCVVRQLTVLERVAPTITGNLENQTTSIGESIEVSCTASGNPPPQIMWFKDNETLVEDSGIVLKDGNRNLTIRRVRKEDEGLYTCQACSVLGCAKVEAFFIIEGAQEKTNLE
T1 sequence (P35918 20-762 limits assumed): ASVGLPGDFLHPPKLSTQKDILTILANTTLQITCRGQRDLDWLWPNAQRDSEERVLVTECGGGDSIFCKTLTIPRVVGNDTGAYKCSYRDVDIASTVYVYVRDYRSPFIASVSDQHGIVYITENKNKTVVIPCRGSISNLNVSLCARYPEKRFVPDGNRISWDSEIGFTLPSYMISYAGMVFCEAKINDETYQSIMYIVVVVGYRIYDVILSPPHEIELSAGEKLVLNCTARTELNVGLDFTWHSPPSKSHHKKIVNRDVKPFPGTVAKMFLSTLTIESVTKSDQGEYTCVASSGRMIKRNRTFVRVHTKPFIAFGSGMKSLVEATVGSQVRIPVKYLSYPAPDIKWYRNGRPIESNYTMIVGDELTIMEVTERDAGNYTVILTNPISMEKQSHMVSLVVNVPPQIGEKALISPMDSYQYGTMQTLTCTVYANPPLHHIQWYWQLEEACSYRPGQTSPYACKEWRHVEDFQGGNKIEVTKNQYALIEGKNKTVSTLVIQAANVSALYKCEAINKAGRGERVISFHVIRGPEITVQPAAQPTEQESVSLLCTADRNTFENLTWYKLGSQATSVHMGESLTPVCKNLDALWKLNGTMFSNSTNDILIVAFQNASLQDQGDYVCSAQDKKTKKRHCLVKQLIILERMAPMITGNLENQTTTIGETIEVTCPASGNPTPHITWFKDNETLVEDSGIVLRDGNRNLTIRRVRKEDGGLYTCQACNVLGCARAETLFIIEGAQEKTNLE
T2 sequence (O08775 20-760 limits assumed): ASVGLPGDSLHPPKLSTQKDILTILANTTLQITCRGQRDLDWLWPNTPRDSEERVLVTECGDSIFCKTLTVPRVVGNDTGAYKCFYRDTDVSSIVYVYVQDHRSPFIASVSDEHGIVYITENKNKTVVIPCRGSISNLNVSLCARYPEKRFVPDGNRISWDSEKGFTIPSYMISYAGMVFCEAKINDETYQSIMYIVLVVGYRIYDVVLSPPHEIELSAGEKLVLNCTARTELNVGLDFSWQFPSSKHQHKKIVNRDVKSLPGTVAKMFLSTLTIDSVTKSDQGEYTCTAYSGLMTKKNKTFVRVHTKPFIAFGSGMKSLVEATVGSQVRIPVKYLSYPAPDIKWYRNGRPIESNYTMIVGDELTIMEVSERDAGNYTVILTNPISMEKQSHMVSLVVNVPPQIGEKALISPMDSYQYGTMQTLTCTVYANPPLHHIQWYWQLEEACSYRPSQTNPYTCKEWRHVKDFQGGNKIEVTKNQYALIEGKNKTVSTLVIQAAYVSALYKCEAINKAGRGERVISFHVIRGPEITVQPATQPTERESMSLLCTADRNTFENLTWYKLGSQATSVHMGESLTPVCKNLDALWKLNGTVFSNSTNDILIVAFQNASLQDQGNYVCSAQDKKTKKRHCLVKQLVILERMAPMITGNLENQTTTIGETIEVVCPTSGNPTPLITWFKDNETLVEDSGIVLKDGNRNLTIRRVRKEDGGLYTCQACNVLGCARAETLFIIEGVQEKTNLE
T4 sequence (P35968 20-1356): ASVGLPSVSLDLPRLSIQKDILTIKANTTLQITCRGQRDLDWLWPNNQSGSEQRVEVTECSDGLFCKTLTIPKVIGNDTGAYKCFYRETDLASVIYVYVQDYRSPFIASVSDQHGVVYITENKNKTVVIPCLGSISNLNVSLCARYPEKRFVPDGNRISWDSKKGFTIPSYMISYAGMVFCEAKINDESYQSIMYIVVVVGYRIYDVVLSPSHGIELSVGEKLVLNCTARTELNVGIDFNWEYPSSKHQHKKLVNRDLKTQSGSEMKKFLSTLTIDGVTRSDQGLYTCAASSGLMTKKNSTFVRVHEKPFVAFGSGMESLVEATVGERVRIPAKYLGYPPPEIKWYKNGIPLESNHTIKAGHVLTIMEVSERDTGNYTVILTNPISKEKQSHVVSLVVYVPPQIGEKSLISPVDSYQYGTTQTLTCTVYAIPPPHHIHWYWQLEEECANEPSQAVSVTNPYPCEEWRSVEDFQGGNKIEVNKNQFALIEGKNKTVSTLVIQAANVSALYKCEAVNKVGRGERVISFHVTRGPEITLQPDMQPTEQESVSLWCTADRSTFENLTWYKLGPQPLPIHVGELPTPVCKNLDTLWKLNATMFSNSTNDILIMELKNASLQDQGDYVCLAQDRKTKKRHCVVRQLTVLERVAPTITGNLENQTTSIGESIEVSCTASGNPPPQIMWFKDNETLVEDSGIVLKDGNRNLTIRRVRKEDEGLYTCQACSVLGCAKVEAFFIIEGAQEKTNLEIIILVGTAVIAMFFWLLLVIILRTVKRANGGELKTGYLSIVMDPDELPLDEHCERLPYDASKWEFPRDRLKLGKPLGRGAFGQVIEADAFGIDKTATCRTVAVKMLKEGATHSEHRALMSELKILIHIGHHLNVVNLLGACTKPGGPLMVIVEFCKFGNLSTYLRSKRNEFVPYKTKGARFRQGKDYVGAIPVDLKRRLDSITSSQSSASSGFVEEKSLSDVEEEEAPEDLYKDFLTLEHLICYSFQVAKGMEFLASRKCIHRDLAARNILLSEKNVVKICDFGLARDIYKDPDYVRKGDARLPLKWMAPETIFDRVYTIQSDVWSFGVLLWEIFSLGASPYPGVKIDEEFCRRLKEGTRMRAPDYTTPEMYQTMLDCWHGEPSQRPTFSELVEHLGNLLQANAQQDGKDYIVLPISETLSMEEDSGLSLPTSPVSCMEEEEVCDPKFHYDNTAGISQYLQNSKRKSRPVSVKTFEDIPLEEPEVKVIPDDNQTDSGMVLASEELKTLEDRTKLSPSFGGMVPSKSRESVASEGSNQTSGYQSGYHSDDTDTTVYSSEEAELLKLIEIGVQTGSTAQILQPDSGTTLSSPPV

B1: Mab 149 (antibody, V domains shown)
VH: EVQLLESGGGLVQPGGSLRLSCAASGFTFSWYVMGWVRQAPGKGLEWVSSIYPSGGATNYADSVKGRFTISRDNSKNTLYLQMNSLRAEDTAVYYCARGNYLDYWGQGTLVTVSS
VL: DIQMTQSPGTLSLSPGEGATLSCRASQSVSSNYFGWYQQKPGQAPRLLIYGASSRATGIPDRFSGSGSGTDFTLTISRLEPEDSAVYYCQQFDSSPLSFGGGTKVEIKR
Take B1: the dissociation constant Kd came out at 79.2 nM with murine VEGFR2 [1], 43.1 nM with rat VEGFR2 and 7.65 nM with human VEGFR2 [2].

B2: Mab 138 (antibody, V domains shown)
VH: EVQLLESGGGLVQPGGSLRLSCAASGFTFSWYVMGWVRQAPGKGLEWVSSIYPSGGATNYADSVKGRFTISRDNSKNTLYLQMNSLRAEDTAVYYCARGNYFDYWGQGTLVTVSS
VL: DIQMTQSPGTLSLSPGDRATLSCRASQSVSSNYLAWYQQKPGQAPRVLIYGASTRATGIPDRFTGSGSGTDFTLTISRLEPEDSAVYYCQQFDSSPLSFGGGTKVEIKR
On to B2, for which binding with rat VEGFR2 was put at a Kd of 31.2 nM.

B3: Mab 147 (antibody, V domains shown)
VH: EVQLLESGGGLVQPGGSLRLSCAASGFTFSWYVMGWVRQAPGKGLEWVSSIYPQGGATSYADSVKGRFTISRDNSKNTLYLQMNSLRAEDTAVYYCARGNYFDYWGQGTLVTVSS
VL: DIQMTQSPGTLSLSPGEGATLSCRASQSVSSNYFGWYQQKPGQAPRLLIYGASSRATGIPDRFSGSGSGTDFTLTISRLEPEDSAVYYCQQFDSLPLTFGGGTKVEIKR
For the molecule B3, the Kd was 29.4 nM in the test with murine VEGFR2 [1], 13.9 nM with rat VEGFR2 and 2.51 nM in the test with human VEGFR2 [2]. Further, the figures for the “EC50 (read off the curve)” value (in [3]; with human VEGFR2 [4]; with murine VEGFR2 [5]) were roughly 0.3 nM, roughly 0.1 nM and roughly 0.1 nM, respectively. For the same molecule, the figures for the “IC50 (read off the curve)” value with human VEGFR2 [6] and with murine VEGFR2 [7] were roughly 0.4 nM and roughly 0.5 nM, respectively.

B4: DC 101 (a murine monoclonal Ab that binds to murine VEGFR2) (antibody, V domains shown)
VH: EVQLVETGGGLVQPGNSLKLSCATSGFIFSTTWMNWIRQTPGKRLEWLAQIEDKSNNYFISYSESVKGRFTISRDDSKSSVYLQMNNLKEEDTAIYYCSWKYRSNYYFDYWGQGVMVTVSS
VL: DIVLTQSPALAVSLEQRATISCKTSQNVDYYGISYLHWYQQKPGQQPKLLIYEGSNLASGIPARFSGSGSGTDFTLTIDPVEADDIVTYYCQQSKDYPYTFGAGTKLELK
In the case of B4, in the test with murine VEGFR2 [7], the “IC50 (read off the curve)” value was roughly 0.6 nM. Further, the half-maximal effective concentration (EC50 (read off the curve)) with murine VEGFR2 [8] was roughly 0.3 nM.

The term Kd denotes a measure of binding affinity in units of concentration. High values mean lower affinity, low ones higher affinity. In general, EC50 (read off the curve) refers to the concentration that produces a half-maximal response.

The record behind these values is patent publication US20160237095A1 (KADMON, published 2016).
